This test deals with human interferon γ (human) (UniProt P01579). In words: cell-based or functional assay.

Among the data in patent US20070020283A1 are IC50 (M), GAS-luciferase bioassay in HEK293 cells and IC50 (M), ISRE-luciferase bioassay in HEK293 cells values, retold here.

Where a chain is given by its changes, count along the chain named.

Sequence of human interferon γ (human) (P01579 24-166 limits assumed): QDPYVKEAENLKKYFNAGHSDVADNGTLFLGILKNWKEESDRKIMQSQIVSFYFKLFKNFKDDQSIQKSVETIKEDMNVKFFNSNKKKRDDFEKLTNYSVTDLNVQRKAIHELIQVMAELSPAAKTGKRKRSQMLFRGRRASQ

B1: hIFNγRα(24-239).TG.hIFNγRβ.SG.hFc (Fc fusion, not shown: a dimerising Fc or GST)
chain: LGPSSVPTPTNVTIESYNMNPIVYWEYQIMPQVPVFTVEVKNYGVKNSEWIDACINISHHYCNISDHVGDPSNSLWVRVKARVGQKESAYAKSEEFAVCRDGKIGPPKLDIRKEEKQIMIDIFHPSVFVNGDEQEVDYDPETTCYIRVYNVYVRMNGSEIQYKILTQKEDDCDEIQCQLAIPVSSLNSQYCVSAEGVLHVWGVTTEKSKEVCITIFTGSQLPAPQHPKIRLYNAEQVLSWEPVALSNSTRPVVYQVQFKYTDSKWFTADIMSIGVNCTQITATECDFTAASPSAGFPMDFNVTLRLRAELGALHSAWVTMPWFQHYRNVTVGPPENIEVTPGEGSLIIRFSSPFDIADTSTAFFCYYVHYWEKGGIQQVKGPFRSNSISLDNLKPSRVYCLQVQAQLLWNKSNIFRVGHLSNISCYETMADASTELQSG
B1 had an IC50 (M), GAS-luciferase bioassay in HEK293 cells of 3.2e-09 M and an IC50 (M), ISRE-luciferase bioassay in HEK293 cells of 1.3e-09 M.

B2: hIFNγRα(23-239).TG.hIFNγRβ.SG.hFc (Fc fusion, not shown: a dimerising Fc or GST)
chain: DLGPSSVPTPTNVTIESYNMNPIVYWEYQIMPQVPVFTVEVKNYGVKNSEWIDACINISHHYCNISDHVGDPSNSLWVRVKARVGQKESAYAKSEEFAVCRDGKIGPPKLDIRKEEKQIMIDIFHPSVFVNGDEQEVDYDPETTCYIRVYNVYVRMNGSEIQYKILTQKEDDCDEIQCQLAIPVSSLNSQYCVSAEGVLHVWGVTTEKSKEVCITIFTGSQLPAPQHPKIRLYNAEQVLSWEPVALSNSTRPVVYQVQFKYTDSKWFTADIMSIGVNCTQITATECDFTAASPSAGFPMDFNVTLRLRAELGALHSAWVTMPWFQHYRNVTVGPPENIEVTPGEGSLIIRFSSPFDIADTSTAFFCYYVHYWEKGGIQQVKGPFRSNSISLDNLKPSRVYCLQVQAQLLWNKSNIFRVGHLSNISCYETMADASTELQSG
As for B2, the IC50 (M), GAS-luciferase bioassay in HEK293 cells was 1.9e-10 M and the IC50 (M), ISRE-luciferase bioassay in HEK293 cells worked out at 5.3e-11 M.

B3: hIFNγRα(23-239).SG.hFc (Fc fusion, not shown: a dimerising Fc or GST)
chain: DLGPSSVPTPTNVTIESYNMNPIVYWEYQIMPQVPVFTVEVKNYGVKNSEWIDACINISHHYCNISDHVGDPSNSLWVRVKARVGQKESAYAKSEEFAVCRDGKIGPPKLDIRKEEKQIMIDIFHPSVFVNGDEQEVDYDPETTCYIRVYNVYVRMNGSEIQYKILTQKEDDCDEIQCQLAIPVSSLNSQYCVSAEGVLHVWGVTTEKSKEVCITIFSG
B3 came in with an IC50 (M), GAS-luciferase bioassay in HEK293 cells of 4.6e-09 M and an IC50 (M), ISRE-luciferase bioassay in HEK293 cells of 2.57e-09 M.

B4: hIFNγRα(23-239).TG.hFc.ARA.hIFNγRβ (Fc fusion, not shown: a dimerising Fc or GST)
chain (part 1 of 2): B3 chain with S218T
chain (part 2 of 2): ARASQLPAPQHPKIRLYNAEQVLSWEPVALSNSTRPVVYQVQFKYTDSKWFTADIMSIGVNCTQITATECDFTAASPSAGFPMDFNVTLRLRAELGALHSAWVTMPWFQHYRNVTVGPPENIEVTPGEGSLIIRFSSPFDIADTSTAFFCYYVHYWEKGGIQQVKGPFRSNSISLDNLKPSRVYCLQVQAQLLWNKSNIFRVGHLSNISCYETMADASTELQ
B4 showed an IC50 (M), GAS-luciferase bioassay in HEK293 cells of 1e-09 M and an IC50 (M), ISRE-luciferase bioassay in HEK293 cells of 7.9e-10 M.

B5: hIFNγRα(24-239).SG.hFc (Fc fusion, not shown: a dimerising Fc or GST)
chain: LGPSSVPTPTNVTIESYNMNPIVYWEYQIMPQVPVFTVEVKNYGVKNSEWIDACINISHHYCNISDHVGDPSNSLWVRVKARVGQKESAYAKSEEFAVCRDGKIGPPKLDIRKEEKQIMIDIFHPSVFVNGDEQEVDYDPETTCYIRVYNVYVRMNGSEIQYKILTQKEDDCDEIQCQLAIPVSSLNSQYCVSAEGVLHVWGVTTEKSKEVCITIFSG
Take B5: the IC50 (M), GAS-luciferase bioassay in HEK293 cells worked out at 2.1e-08 M and the IC50 (M), ISRE-luciferase bioassay in HEK293 cells came to 1.2e-08 M.

B6: hIFNγRα(24-239).TG.hFc.ARA.hIFNγRβ (Fc fusion, not shown: a dimerising Fc or GST)
chain (part 1 of 2): B5 chain with S217T
chain (part 2 of 2): B4 chain (part 2 of 2)
For the molecule B6, the IC50 (M), GAS-luciferase bioassay in HEK293 cells was determined as 1.1e-08 M and the IC50 (M), ISRE-luciferase bioassay in HEK293 cells is 6e-09 M.

B7: hIFNγRα(33-239).TG.hIFNγRβ.SG.hFc (Fc fusion, not shown: a dimerising Fc or GST)
chain: TNVTIESYNMNPIVYWEYQIMPQVPVFTVEVKNYGVKNSEWIDACINISHHYCNISDHVGDPSNSLWVRVKARVGQKESAYAKSEEFAVCRDGKIGPPKLDIRKEEKQIMIDIFHPSVFVNGDEQEVDYDPETTCYIRVYNVYVRMNGSEIQYKILTQKEDDCDEIQCQLAIPVSSLNSQYCVSAEGVLHVWGVTTEKSKEVCITIFTGSQLPAPQHPKIRLYNAEQVLSWEPVALSNSTRPVVYQVQFKYTDSKWFTADIMSIGVNCTQITATECDFTAASPSAGFPMDFNVTLRLRAELGALHSAWVTMPWFQHYRNVTVGPPENIEVTPGEGSLIIRFSSPFDIADTSTAFFCYYVHYWEKGGIQQVKGPFRSNSISLDNLKPSRVYCLQVQAQLLWNKSNIFRVGHLSNISCYETMADASTELQSG
On to B7, for which the IC50 (M), GAS-luciferase bioassay in HEK293 cells was determined as 1.3e-08 M and the IC50 (M), ISRE-luciferase bioassay in HEK293 cells turned out to be 2.4e-07 M.
